Measurements from PMC12866179, “Oxidized MIF is an Alzheimer’s disease drug target relaying external risk factors to tau pathology” (Cell Reports Medicine, 2025).

Molecular target: recombinant human MIF-C80W (human)
Experiment: SEC-MALS; 100 uM MIF (WT or C80W) in 20 mM phosphate buffer, with or without 100 uM PAV-174; TSKgel G2000SWXL, 0.5 mL/min, 25 C; UV 280 nm and miniDawn Treos light scattering

- stoichiometry N: 3
Substance: recombinant human MIF-C80W (natural protein)
